Experimental data published in patent publication US20230143604A1, “QW DOSING OF GIP RECEPTOR AGONIST PEPTIDE COMPOUNDS AND USES THEREOF” (TAKEDA PHARMACEUTICAL COMPANY LIMITED, priority 2020, published 2023).
Non-standard residues stand in square brackets, D forms with d. Groups on a side chain read outwards from the residue. No end group written: not given here. *: point of attachment. 2OEGgEgE‑C18 diacid = O=C(O)CCCCCCCCCCCCCCCCC(=O)N[C@@H](CCC(=O)N[C@@H](CCC(=O)NCCOCCOCC(=O)NCCOCCOCC(=O)*)C(=O)O)C(=O)O; C20 diacid = O=C(O)CCCCCCCCCCCCCCCCCCC(=O)*; C18 diacid = O=C(O)CCCCCCCCCCCCCCCCC(=O)*; NMeY = CN[C@@H](Cc1ccc(O)cc1)C(=O)O; Aib = CC(C)(N)C(=O)O

B1: Compound No. 62 (peptide)
peptide: [NMeY][Aib]EGTFISDYSI[Aib]LDR[Aib]AQ[Aib]DFVNWLLAK(2OEGgEgE‑C18 diacid)RG-OH
modifications: N-terminus assumed
SMILES: CC[C@H](C)[C@H](NC(=O)[C@H](Cc1ccccc1)NC(=O)[C@@H](NC(=O)CNC(=O)[C@H](CCC(=O)O)NC(=O)C(C)(C)NC(=O)[C@H](Cc1ccc(O)cc1)NC)[C@@H](C)O)C(=O)N[C@@H](CO)C(=O)N[C@@H](CC(=O)O)C(=O)N[C@@H](Cc1ccc(O)cc1)C(=O)N[C@@H](CO)C(=O)N[C@H](C(=O)NC(C)(C)C(=O)N[C@@H](CC(C)C)C(=O)N[C@@H](CC(=O)O)C(=O)N[C@@H](CCCNC(=N)N)C(=O)NC(C)(C)C(=O)N[C@@H](C)C(=O)N[C@@H](CCC(N)=O)C(=O)NC(C)(C)C(=O)N[C@@H](CC(=O)O)C(=O)N[C@@H](Cc1ccccc1)C(=O)N[C@H](C(=O)N[C@@H](CC(N)=O)C(=O)N[C@@H](Cc1c[nH]c2ccccc12)C(=O)N[C@@H](CC(C)C)C(=O)N[C@@H](CC(C)C)C(=O)N[C@@H](C)C(=O)N[C@@H](CCCCNC(=O)COCCOCCNC(=O)COCCOCCNC(=O)CC[C@H](NC(=O)CC[C@H](NC(=O)CCCCCCCCCCCCCCCCC(=O)O)C(=O)O)C(=O)O)C(=O)N[C@@H](CCCNC(=N)N)C(=O)NCC(=O)O)C(C)C)[C@@H](C)CC
B2: Compound No. 57 (peptide)
peptide: [NMeY][Aib]EGTFISDYSIALDR[Aib]AQ[Aib]DFVNWLLAK(2OEGgEgE‑C18 diacid)RGGGGS-NH2
modifications: N-terminus assumed
SMILES: CC[C@H](C)[C@H](NC(=O)[C@H](CO)NC(=O)[C@H](Cc1ccc(O)cc1)NC(=O)[C@H](CC(=O)O)NC(=O)[C@H](CO)NC(=O)[C@@H](NC(=O)[C@H](Cc1ccccc1)NC(=O)[C@@H](NC(=O)CNC(=O)[C@H](CCC(=O)O)NC(=O)C(C)(C)NC(=O)[C@H](Cc1ccc(O)cc1)NC)[C@@H](C)O)[C@@H](C)CC)C(=O)N[C@@H](C)C(=O)N[C@@H](CC(C)C)C(=O)N[C@@H](CC(=O)O)C(=O)N[C@@H](CCCNC(=N)N)C(=O)NC(C)(C)C(=O)N[C@@H](C)C(=O)N[C@@H](CCC(N)=O)C(=O)NC(C)(C)C(=O)N[C@@H](CC(=O)O)C(=O)N[C@@H](Cc1ccccc1)C(=O)N[C@H](C(=O)N[C@@H](CC(N)=O)C(=O)N[C@@H](Cc1c[nH]c2ccccc12)C(=O)N[C@@H](CC(C)C)C(=O)N[C@@H](CC(C)C)C(=O)N[C@@H](C)C(=O)N[C@@H](CCCCNC(=O)COCCOCCNC(=O)COCCOCCNC(=O)CC[C@H](NC(=O)CC[C@H](NC(=O)CCCCCCCCCCCCCCCCC(=O)O)C(=O)O)C(=O)O)C(=O)N[C@@H](CCCNC(=N)N)C(=O)NCC(=O)NCC(=O)NCC(=O)NCC(=O)N[C@@H](CO)C(N)=O)C(C)C
B3: Compound No. 56 (peptide)
peptide: [NMeY][Aib]EGTFISDYSIALDR[Aib]AQ[Aib]DFVNWLLAK(2OEGgEgE‑C18 diacid)RG-OH
modifications: N-terminus assumed
SMILES: CC[C@H](C)[C@H](NC(=O)[C@H](CO)NC(=O)[C@H](Cc1ccc(O)cc1)NC(=O)[C@H](CC(=O)O)NC(=O)[C@H](CO)NC(=O)[C@@H](NC(=O)[C@H](Cc1ccccc1)NC(=O)[C@@H](NC(=O)CNC(=O)[C@H](CCC(=O)O)NC(=O)C(C)(C)NC(=O)[C@H](Cc1ccc(O)cc1)NC)[C@@H](C)O)[C@@H](C)CC)C(=O)N[C@@H](C)C(=O)N[C@@H](CC(C)C)C(=O)N[C@@H](CC(=O)O)C(=O)N[C@@H](CCCNC(=N)N)C(=O)NC(C)(C)C(=O)N[C@@H](C)C(=O)N[C@@H](CCC(N)=O)C(=O)NC(C)(C)C(=O)N[C@@H](CC(=O)O)C(=O)N[C@@H](Cc1ccccc1)C(=O)N[C@H](C(=O)N[C@@H](CC(N)=O)C(=O)N[C@@H](Cc1c[nH]c2ccccc12)C(=O)N[C@@H](CC(C)C)C(=O)N[C@@H](CC(C)C)C(=O)N[C@@H](C)C(=O)N[C@@H](CCCCNC(=O)COCCOCCNC(=O)COCCOCCNC(=O)CC[C@H](NC(=O)CC[C@H](NC(=O)CCCCCCCCCCCCCCCCC(=O)O)C(=O)O)C(=O)O)C(=O)N[C@@H](CCCNC(=N)N)C(=O)NCC(=O)O)C(C)C
B4: Compound No. 61 (peptide)
peptide: [NMeY][Aib]EGTFISDYSIALDR[Aib]AQ[Aib]DFVNWLLAQK(2OEGgEgE‑C18 diacid)G-OH
modifications: N-terminus assumed
SMILES: CC[C@H](C)[C@H](NC(=O)[C@H](CO)NC(=O)[C@H](Cc1ccc(O)cc1)NC(=O)[C@H](CC(=O)O)NC(=O)[C@H](CO)NC(=O)[C@@H](NC(=O)[C@H](Cc1ccccc1)NC(=O)[C@@H](NC(=O)CNC(=O)[C@H](CCC(=O)O)NC(=O)C(C)(C)NC(=O)[C@H](Cc1ccc(O)cc1)NC)[C@@H](C)O)[C@@H](C)CC)C(=O)N[C@@H](C)C(=O)N[C@@H](CC(C)C)C(=O)N[C@@H](CC(=O)O)C(=O)N[C@@H](CCCNC(=N)N)C(=O)NC(C)(C)C(=O)N[C@@H](C)C(=O)N[C@@H](CCC(N)=O)C(=O)NC(C)(C)C(=O)N[C@@H](CC(=O)O)C(=O)N[C@@H](Cc1ccccc1)C(=O)N[C@H](C(=O)N[C@@H](CC(N)=O)C(=O)N[C@@H](Cc1c[nH]c2ccccc12)C(=O)N[C@@H](CC(C)C)C(=O)N[C@@H](CC(C)C)C(=O)N[C@@H](C)C(=O)N[C@@H](CCC(N)=O)C(=O)N[C@@H](CCCCNC(=O)COCCOCCNC(=O)COCCOCCNC(=O)CC[C@H](NC(=O)CC[C@H](NC(=O)CCCCCCCCCCCCCCCCC(=O)O)C(=O)O)C(=O)O)C(=O)NCC(=O)O)C(C)C
B5: Compound No. 55 (peptide)
peptide: [NMeY][Aib]EGTFISDYSIALDR[Aib]AQ[Aib]NFVNWLLAK(2OEGgEgE‑C18 diacid)RG-OH
modifications: N-terminus assumed
SMILES: CC[C@H](C)[C@H](NC(=O)[C@H](CO)NC(=O)[C@H](Cc1ccc(O)cc1)NC(=O)[C@H](CC(=O)O)NC(=O)[C@H](CO)NC(=O)[C@@H](NC(=O)[C@H](Cc1ccccc1)NC(=O)[C@@H](NC(=O)CNC(=O)[C@H](CCC(=O)O)NC(=O)C(C)(C)NC(=O)[C@H](Cc1ccc(O)cc1)NC)[C@@H](C)O)[C@@H](C)CC)C(=O)N[C@@H](C)C(=O)N[C@@H](CC(C)C)C(=O)N[C@@H](CC(=O)O)C(=O)N[C@@H](CCCNC(=N)N)C(=O)NC(C)(C)C(=O)N[C@@H](C)C(=O)N[C@@H](CCC(N)=O)C(=O)NC(C)(C)C(=O)N[C@@H](CC(N)=O)C(=O)N[C@@H](Cc1ccccc1)C(=O)N[C@H](C(=O)N[C@@H](CC(N)=O)C(=O)N[C@@H](Cc1c[nH]c2ccccc12)C(=O)N[C@@H](CC(C)C)C(=O)N[C@@H](CC(C)C)C(=O)N[C@@H](C)C(=O)N[C@@H](CCCCNC(=O)COCCOCCNC(=O)COCCOCCNC(=O)CC[C@H](NC(=O)CC[C@H](NC(=O)CCCCCCCCCCCCCCCCC(=O)O)C(=O)O)C(=O)O)C(=O)N[C@@H](CCCNC(=N)N)C(=O)NCC(=O)O)C(C)C

Target: full-length human GLP-1R with an N-terminal FLAG tag (human, UniProt P43220 24-463)
Assay: cell-based or functional assay

Binder	Human GLP1R cAMP EC50, HEK293T
B1	> 1000 nM
[NMeY][Aib]EGTFISDYSIALDR[Aib]K([2OEGgEgE-C20 diacid])Q[Aib]NFVNWLLAQSPSSGAPPPS-NH2 [Compound No. 68]	> 1000 nM
[NMeY][Aib]EGTFISDYSIALDRIHQQNFVNWLLAQK-NH2 (not fully specified (residue 30)) [Compound No. 5]	123 nM
B2	> 1000 nM
[NMeY][Aib]EGTFISDYSIALDR[Aib]AQ[Aib]NFVNWLLAK(2OEGgEgE‑C18 diacid)SPSSGAPPPS-NH2 [Compound No. 59]	> 1000 nM
B3	> 1000 nM
B4	> 1000 nM
[NMeY][Aib]EGTFISDYSIALDR[Aib]AQ[Aib]DFVNWLLAK(2OEGgEgE‑C18 diacid)RPSSGAPPPS-NH2 [Compound No. 58]	> 1000 nM
YXEGTFISDYSIAXDSXAQXDFVNWLLAQSG (N-methyl Tyr 1; Aib at 2,17,20; Lys(G5-C18 diacid) at 14; C-terminal OH) [Compound No. 60]	100 nM
YXEGTFISDYSIAXDRXAQXDFVNWLLAQRG (N-methyl Tyr 1; Aib at 2,17,20; Lys(G5-C18 diacid) at 14; C-terminal OH) [Compound No. 63]	75.9 nM
YXEGTFISDYSIXLDSXAQXDFVNWLLAQRG (N-methyl Tyr 1; Aib at 2,13,20; Lys(G6-C18 diacid) at 17; C-terminal OH) [Compound No. 64]	110 nM
[NMeY][Aib]EGTFISDYSIAKDR[Aib]AQ[Aib]NFVNWLLAQK-NH2 (not fully specified (residue 14)) [Compound No. 6]	83.2 nM
B5	741 nM
[NMeY][Aib]EGTFISDYSI[Aib]LDR[Aib]AQ[Aib]K([2OEGgEgE-C18 diacid])FVNWLLAQKG-OH [Compound No. 66]	32.4 nM
[NMeY][Aib]EGTFISDYSI[Aib]LDR[Aib]AQ[Aib]K([2OEGgEgE-C20 diacid])FVNWLLAQKG-OH [Compound No. 65]	40.7 nM

Target: T1, full-length human GIPR with an N-terminal FLAG tag (human, UniProt P48546 22-466)
T1 sequence (looked up): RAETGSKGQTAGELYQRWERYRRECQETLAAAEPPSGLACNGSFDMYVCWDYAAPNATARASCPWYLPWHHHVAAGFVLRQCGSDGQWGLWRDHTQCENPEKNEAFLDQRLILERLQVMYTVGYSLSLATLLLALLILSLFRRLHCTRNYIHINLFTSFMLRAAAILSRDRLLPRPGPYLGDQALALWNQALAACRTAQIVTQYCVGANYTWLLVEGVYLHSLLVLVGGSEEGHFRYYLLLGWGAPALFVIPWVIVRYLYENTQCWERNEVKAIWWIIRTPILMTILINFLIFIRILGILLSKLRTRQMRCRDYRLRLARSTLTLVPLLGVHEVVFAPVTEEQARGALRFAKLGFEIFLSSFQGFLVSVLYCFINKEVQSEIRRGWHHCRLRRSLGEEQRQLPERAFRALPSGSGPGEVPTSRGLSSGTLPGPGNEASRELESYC
Assay: cell-based or functional assay

Binder	Human GIPR cAMP EC50, HEK293T
B1	0.0004 nM
[NMeY][Aib]EGTFISDYSIALDR[Aib]K([2OEGgEgE-C20 diacid])Q[Aib]NFVNWLLAQSPSSGAPPPS-NH2 [Compound No. 68]	0.0007 nM
[NMeY][Aib]EGTFISDYSIALDRIHQQNFVNWLLAQK-NH2 (not fully specified (residue 30)) [Compound No. 5]	0.0007 nM
B2	0.0006 nM
[NMeY][Aib]EGTFISDYSIALDR[Aib]AQ[Aib]NFVNWLLAK(2OEGgEgE‑C18 diacid)SPSSGAPPPS-NH2 [Compound No. 59]	0.0005 nM
B3	0.0006 nM
B4	0.0007 nM
[NMeY][Aib]EGTFISDYSIALDR[Aib]AQ[Aib]DFVNWLLAK(2OEGgEgE‑C18 diacid)RPSSGAPPPS-NH2 [Compound No. 58]	0.0004 nM
YXEGTFISDYSIAXDSXAQXDFVNWLLAQSG (N-methyl Tyr 1; Aib at 2,17,20; Lys(G5-C18 diacid) at 14; C-terminal OH) [Compound No. 60]	0.0003 nM
YXEGTFISDYSIAXDRXAQXDFVNWLLAQRG (N-methyl Tyr 1; Aib at 2,17,20; Lys(G5-C18 diacid) at 14; C-terminal OH) [Compound No. 63]	0.0002 nM
YXEGTFISDYSIXLDSXAQXDFVNWLLAQRG (N-methyl Tyr 1; Aib at 2,13,20; Lys(G6-C18 diacid) at 17; C-terminal OH) [Compound No. 64]	0.0002 nM
[NMeY][Aib]EGTFISDYSIAKDR[Aib]AQ[Aib]NFVNWLLAQK-NH2 (not fully specified (residue 14)) [Compound No. 6]	0.0004 nM
B5	0.0009 nM
[NMeY][Aib]EGTFISDYSI[Aib]LDR[Aib]AQ[Aib]K([2OEGgEgE-C18 diacid])FVNWLLAQKG-OH [Compound No. 66]	0.0008 nM
[NMeY][Aib]EGTFISDYSI[Aib]LDR[Aib]AQ[Aib]K([2OEGgEgE-C20 diacid])FVNWLLAQKG-OH [Compound No. 65]	0.001 nM
